Measured values as given in paper PMC4075976 (Nature structural & molecular biology, 2008).
Where no end group is shown, it is not given here.

B1: Pirh2 RING domain (GST removed) (domain or fragment)
chain: ENVSRQNCPICLEDIHTSRVVAHVLPCGHLLHRTCYEEMLKEGYRCPLCMHS
modifications: cysteine pairing not given here; also: 2 Zn ions bound
B2: GST-Pirh2 NTD (domain or fragment, human, UniProt Q96PM5 1-137, looked up)
chain: MAATAREDGASGQERGQRGCEHYDRGCLLKAPCCDKLYTCRLCHDNNEDHQLDRFKVKEVQCINCEKIQHAQQTCEECSTLFGEYYCDICHLFDKDKKQYHCENCGICRIGPKEDFFHCLKCNLCLAMNLQGRHKCI

Key:
[1] = biological target: UBE2D2/UbcH5b (UniProt P62837 1-147); assay: NMR titration
[2] = biological target: full length 6xHis tagged p53 (human, UniProt P04637 1-393); assay: pull-down
Chain of full length 6xHis tagged p53 (P04637 whole entry): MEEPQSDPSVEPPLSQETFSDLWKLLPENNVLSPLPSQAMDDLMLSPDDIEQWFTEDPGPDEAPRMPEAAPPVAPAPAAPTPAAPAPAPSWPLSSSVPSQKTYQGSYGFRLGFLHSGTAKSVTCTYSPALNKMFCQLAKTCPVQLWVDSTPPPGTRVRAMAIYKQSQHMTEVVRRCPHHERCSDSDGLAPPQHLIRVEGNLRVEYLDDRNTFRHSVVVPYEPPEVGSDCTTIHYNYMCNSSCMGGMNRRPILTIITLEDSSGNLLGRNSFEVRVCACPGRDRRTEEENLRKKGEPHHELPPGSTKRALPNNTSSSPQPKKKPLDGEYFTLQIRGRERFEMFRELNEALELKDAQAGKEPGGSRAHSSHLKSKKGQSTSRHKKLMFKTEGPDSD

Row | Binder | Kd [1] | binding result [2]
1 | B1 | ~200 µM | 
2 | B2 |  | binds
